Reference: US20220363763A1 (ABL BIO, published 2022)
Substitutions are numbered along the chain they refer to.

T1: recombinant his-tag human LAG3-ECD protein (human, UniProt P18627 23-450)
T1 construct: extracellular domain; not shown: his tag
T1 sequence (looked up): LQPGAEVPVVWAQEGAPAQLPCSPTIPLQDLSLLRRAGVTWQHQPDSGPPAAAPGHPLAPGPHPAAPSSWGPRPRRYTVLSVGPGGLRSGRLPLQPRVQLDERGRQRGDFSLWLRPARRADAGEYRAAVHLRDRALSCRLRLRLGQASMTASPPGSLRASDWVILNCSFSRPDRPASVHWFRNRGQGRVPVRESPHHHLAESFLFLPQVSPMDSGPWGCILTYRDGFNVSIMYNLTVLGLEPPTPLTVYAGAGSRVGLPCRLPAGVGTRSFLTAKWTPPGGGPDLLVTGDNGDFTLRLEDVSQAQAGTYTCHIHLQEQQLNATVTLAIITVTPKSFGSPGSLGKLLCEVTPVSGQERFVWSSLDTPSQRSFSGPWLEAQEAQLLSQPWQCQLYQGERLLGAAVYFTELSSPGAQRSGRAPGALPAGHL

T2: human LAG3 (construct not stated) (human, UniProt P18627 23-450, limits assumed)
T2 construct: also called human LAG3 protein; antigen
T2 sequence (looked up): T1 sequence (looked up)

B1: NLAG3-HDB169-S24 (antibody, human IgG1, V domains shown)
VH: QVQLVQSGAEVKKPGSSVKVSCKASGGTFSSYAISWVRQAPGQGLEWMGGIIPIFGTANYAQKFQGRVTITADESTSTAYMELSSLRSEDTAVYYCTREPHFDYWGQGTLVTVSS
VL: EIVMTQSPSSLSASVGDRVTITCQASQDISNYLNWYQQKPGKAPKLLIYDASNLETGVPSRFSGSGSGTEFTLTISSLRPEDFATYFCQQADSFPITFGQGTRLEIKR
notes: Short label tied by its unique suffix
B2: NLAG3-HDB169-S87 (antibody, human IgG1, V domains shown)
VH: QVQLVQSGAEVKKPGSSVKVSCKASGGTFSSYAISWVRQAPGQGLEWMGGIIPIFGTANYAQKFQGRVTITADESTSTAYMELSSLRSEDTAVYYCAKDIRWYYGMDVWGQGTTVTVSS
VL: DIVMTQSPSSVSAFVGDRVTITCRASQGVSSWLAWFQQKPGKAPKLLIYAASTLQSGVPSRFSGRGYGTEFTLTISSLQPEDLATYYCQQVKSFPLTFGGGTKVDIKR
notes: as for B1
B3: NLAG3-HDB169-S120 (antibody, human IgG1, V domains shown)
VH: QVQLVQSGAEVKKPGSSVKVSCKASGGTFSSYAISWVRQAPGQGLEWMGGIIPIFGTANYAQKFQGRVTITADESTSTAYMELSSLRSEDTAVYYCARSGDRYDFWSGYWGQGTLVTVSS
VL: EIVLTQSPSSVSASVGDRVTITCRASRGISSWLAWYQQKPGKAPKLLIYAASTLQSGVPSRFSGSGSGTDFTLTISSLQPEDFATYYCQQAKSFPLTFGGGTKVEIKR
notes: as for B1
B4: NLAG3-HDB169-S136 (antibody, human IgG1, V domains shown)
VH: QVQLVQSGAEVKKPGSSVKVSCKASGGTFSSYAISWVRQAPGQGLEWMGGIIPIFGTANYAQKFQGRVTITADESTSTAYMELSSLRSEDTAVYYCTRGQDSTWYSSFDYWGQGTLVTVSS
VL: AIRMTQSPSSLSASVGDRVTITCRASQSISSYLNWYQQKPGKAPNLLIYAVSTLQSGVPSRFSGSGSGTVFTLTISSLQPEDFATYFCQQGNSFPLTFGGGTKVEIKR
notes: as for B1
B5: NLAG3-HDB323-S161 (antibody, human IgG1, V domains shown)
VH: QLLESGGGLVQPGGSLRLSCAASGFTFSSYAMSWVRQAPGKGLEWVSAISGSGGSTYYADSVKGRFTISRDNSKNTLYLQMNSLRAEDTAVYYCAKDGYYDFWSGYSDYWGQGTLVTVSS
VL: AIQLTQSPSSLSASVGDRVTITCRASEGISGWLAWYQQIPGKAPKLLIYAASSLETGVPSRFSGSGYGTDFTLTISSLQPEDFATYYCQQADSFPFTFGPGTKVEIKR
notes: as for B1
B6: Hu1210-27 (antibody, V domains shown)
VH: EVQLVESGGGLVQPGGSLRLSCAASGFTFSSYDMSWVRQAPGKGLEWVATISDGGGYIYYSDSVKGRFTISRDNAKNSLYLQMNSLRAEDTAVYICAREFGKRYALDYWGQGTLVTVSS
VL: DIQMTQSPSSLSASVGDRVTITCKASQDVTPAVAWYQQKPGKAPKLLIYSTSSRYTGVPSRFSGSGSGTDFTLTISSLQPEDFATYYCQQHYTTPLTFGQGTKLEIKR
notes: Hu1210 VH.5a x Vk.2; human gamma 1 / kappa constant domains
B7: 147H-6 (antibody, V domains shown)
VH: QVQLVQSGAEVKKPGASVKVSCKASGYTFTNYWLGWIKQAPGQGLEWIGDIYPGGDYINYNEKFKGKATLTADTSISTAYMELSRLRSDDTAVYYCARPNLPGDYWGQGTTVTVSS
VL: DIVMTQSPLSLPVTPGEPASISCRSSKSLLHSNGITYLYWYLQKPGQSPQLLIYQVSNLASGVPDRFSGSGSGTDFTLKISRVEAEDVGVYYCAQNLELPWTFGGGTKVEIK
notes: Common light chain; human gamma 1 / kappa constant domains
B8: 147H-7 (antibody, V domains shown)
VH: B7 VH with Y95F
VL: B7 VL
notes: as for B7
B9: 147H-14 (antibody, V domains shown)
VH: B7 VH with Q1E, Y95F
VL: B7 VL
notes: as for B7
B10: 147H chimeric antibody (antibody, V domains shown)
VH: QVQLQQSGSELVRPGTSVKISCKASGYTFTNYWLGWIKQRPGHGLEWIGDIYPGGDYINYNEKFKGKATLSADTSSSTAYMQLSSLTSEDSAVYFCARPNLPGDYWGQGTSVTVSS
VL: B7 VL with S7A, P8A, L9F, L11N, P15L, E17T, P18S, D65G, K79R, V109L
B11: A1 (antibody, V domains shown)
VH: B6 VH with G44S, G54A, S61R, A88D, F100L, G101L, K102H, L114T
VL: DIQMTQSPSSLSASVGDRVTITCKASQDVTPAVAWYQQKPGKAPKLLIYSTSSRYTGVPSRFSGSGSGTDFTFTISSLQPEDIATYYCQQHYTTPLTFGQGTKLEIK
B12: A2 (antibody, V domains shown)
VH: B6 VH with G44S, G54A, S61R, A88D, F100L, G101R, K102G, L114T
VL: B11 VL
B13: A3 (antibody, V domains shown)
VH: B6 VH with G44S, G54A, S61R, A88D, L114T
VL: B11 VL with Y92S, T93D, T94A
B14: B1 (antibody, V domains shown)
VH: B6 VH with G44S, G54A, S61R, A88D, F100I, G101F, K102N, L114T
VL: B11 VL
B15: B3 (antibody, V domains shown)
VH: B6 VH with G44S, G54A, S61R, A88D, L114T
VL: B11 VL with S26K, Q89M
B16: C3 (antibody, V domains shown)
VH: B6 VH with G44S, G54A, S61R, A88D, F100L, G101H, K102F, L114T
VL: B11 VL
B17: C4 (antibody, V domains shown)
VH: B6 VH with G44S, G54A, S61R, A88D, Y108S, L114T
VL: B11 VL with T30W, Y92S
B18: C6 (antibody, V domains shown)
VH: B6 VH with G44S, G54A, S61R, A88D, F100L, G101Y, K102F, L114T
VL: B11 VL

Each binder was assayed against T1, recombinant his-tag human LAG3-ECD … (assay: SPR Biacore T200, antibody captured by anti-human Fc, LAG3-ECD-his injected).
Protocol: The binding of the S20, S24, S27, S31, S87, S119, S120, S128, S136, S161 and T99 antibodies to recombinant his-tag human LAG3-ECD protein was examined by Biacore T200 using a capture method. Anti-LAG3 antibodies were captured using anti-human Fc antibody. The anti-human Fc antibody was coated on chip. Serial concentrations of his-tag human LAG3-ECD protein (0-4 nM) were injected over capture antibodies at the flow rate of 30 μl/min. The dissociation phase was 900 s or 550 s. The Biacore results for the anti-LAG3 antibodies have shown that these anti-LAG3 antibodies are high affinity binder to human LAG3.
B1 was tested, and the Kd was 6.73 nM, the koff was 0.012 s⁻¹ and the kon was 1.79e+06 M⁻¹ s⁻¹.
Binder B2 has a Kd of 0.00251 nM, a koff of 2.33e-06 s⁻¹ and a kon of 928000 M⁻¹ s⁻¹.
With B3 the Kd was 1.88 nM, the koff was 0.00264 s⁻¹ and the kon was 1.4e+06 M⁻¹ s⁻¹.
B4 gave a Kd of 0.104 nM, a koff of 8.27e-05 s⁻¹ and a kon of 798000 M⁻¹ s⁻¹.
B5 was tested, and the Kd was 0.892 nM, the koff was 0.000553 s⁻¹ and the kon was 620000 M⁻¹ s⁻¹.

The binders below were run against T3, human PD-L1 expressed on mammalian cells (human, UniProt Q9NZQ7 19-290) (assay: FACS receptor blocking on PDL1-CHOK1 cells, competitor Bio-PD1 (30 µg/ml)).
T3 construct: whole, on cells; also called PDL1-CHOK1 cells; PDL1-Raji cells
T3 sequence (Q9NZQ7 19-290): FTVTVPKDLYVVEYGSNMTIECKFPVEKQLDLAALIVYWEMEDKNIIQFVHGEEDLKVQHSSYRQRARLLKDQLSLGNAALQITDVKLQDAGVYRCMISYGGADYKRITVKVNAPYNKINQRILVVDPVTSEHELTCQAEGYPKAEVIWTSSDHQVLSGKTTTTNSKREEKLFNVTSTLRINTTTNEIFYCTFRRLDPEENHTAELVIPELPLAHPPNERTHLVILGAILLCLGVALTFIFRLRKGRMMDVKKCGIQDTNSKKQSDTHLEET
Protocol: To evaluate the blocking effect of humanized antibodies on human PD-L1 expressed on mammalian cells to bind to its receptor PD-1, the FACS-based receptor blocking assay was employed. Briefly, PDL1-CHOK1 cells were firstly incubated with 3-fold serious diluted HL1210-3 mouse mAb starting at 20 μg/ml at RT for 1 hour. After wash by FACS buffer (PBS with 2% FBS), the biotin-labeled huPD-1 were added to each well and incubated at RT for 1 hour. Then, the Streptavidin-PE was added to each well for 0.5 hour post twice wash with FACS buffer. The mean florescence intensity (MFI) of PE was evaluated by FACSAriaIII.
Work on B6 yielded a TOP of 104.

The binders below were run against T2, human LAG3 (construct not stated) (assay: BLI Octet Red 96, full kinetics, antigen 50-3.125 nM).
Protocol: The binding affinity was calculated by software in Octet® RED96 System.
B7 showed a Kd of 24.8 nM, a koff of 0.00259 s⁻¹ and a kon of 105000 M⁻¹ s⁻¹.
Work on B8 yielded a Kd of 26.5 nM, a koff of 0.00312 s⁻¹ and a kon of 118000 M⁻¹ s⁻¹.
B9 showed a Kd of 20.7 nM, a koff of 0.00204 s⁻¹ and a kon of 98700 M⁻¹ s⁻¹.
B10 was tested, and the Kd was 27.1 nM, the koff was 0.00217 s⁻¹ and the kon was 80100 M⁻¹ s⁻¹.

These binders were tested against T2, human LAG3 (construct not stated) (assay: BLI Octet Red 96, affinity ranking).
For B7, the Kd was 15.3 nM, the koff was 0.00184 s⁻¹ and the kon was 120000 M⁻¹ s⁻¹.
B8 was tested, and the Kd was 15.7 nM, the koff was 0.00239 s⁻¹ and the kon was 152000 M⁻¹ s⁻¹.
B9 showed a Kd of 23.2 nM, a koff of 0.0025 s⁻¹ and a kon of 108000 M⁻¹ s⁻¹.

What follows are binders tested against T4, human PD-L1 (construct not stated) (human, UniProt Q9NZQ7 19-239, limits assumed) (assay: SPR Biacore, affinity ranking).
T4 construct: also called B7-H1 (PD-L1); PD-L1 protein
T4 sequence (Q9NZQ7 19-239 limits assumed): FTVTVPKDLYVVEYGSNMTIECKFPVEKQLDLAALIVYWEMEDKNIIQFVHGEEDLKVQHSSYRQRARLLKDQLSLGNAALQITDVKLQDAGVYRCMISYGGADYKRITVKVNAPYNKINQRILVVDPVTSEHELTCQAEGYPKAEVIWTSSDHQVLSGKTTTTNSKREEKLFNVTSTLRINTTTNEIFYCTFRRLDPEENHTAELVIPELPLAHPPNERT
In the case of B11, the Kd is reported as 1.36 nM, the koff is reported as 0.000276 s⁻¹ and the kon is reported as 203000 M⁻¹ s⁻¹.
With B12 the Kd was 2.55 nM, the koff was 0.000475 s⁻¹ and the kon was 187000 M⁻¹ s⁻¹.
B13 was tested, and the Kd was 1.49 nM, the koff was 0.000324 s⁻¹ and the kon was 218000 M⁻¹ s⁻¹.
Work on B14 yielded a Kd of 1.6 nM, a koff of 0.000261 s⁻¹ and a kon of 163000 M⁻¹ s⁻¹.
In the case of B15, the Kd is reported as 2.49 nM, the koff is reported as 0.000296 s⁻¹ and the kon is reported as 119000 M⁻¹ s⁻¹.
Work on B16 yielded a Kd of 1.37 nM, a koff of 0.000299 s⁻¹ and a kon of 218000 M⁻¹ s⁻¹.
With B17 the Kd was 4.5 nM, the koff was 0.000506 s⁻¹ and the kon was 113000 M⁻¹ s⁻¹.
Work on B18 yielded a Kd of 1.63 nM, a koff of 0.000334 s⁻¹ and a kon of 206000 M⁻¹ s⁻¹.
